{
  "source": "the RNAGym collection of RNA variant scans (doi:10.7554/elife.80360)",
  "parents": {"B1": {"name": "HDV Ribozyme (parent)", "chain": "GGCCGGCAUGGUCCCAGCCUCCUCGCUGGCGCCGGCUGGGCAACAUUCCGAGGGGACCGUCCCCUCGGUAAUGGCGAAUGGGACCCA"}},
  "data": [
    {"variants_of": "B1", "assay": "self-cleavage, relative activity (ratio to wild type); higher = more cleavage; co-transcriptional", "values": [
      {"variant": "C30A A77G", "self-cleavage": 0.224},
      {"variant": "G29C C85G", "self-cleavage": 0.0978},
      {"variant": "G29C C85A", "self-cleavage": 0.104},
      {"variant": "C30G C75U", "self-cleavage": 0.0755},
      {"variant": "C30G C75G", "self-cleavage": 0.0997},
      {"variant": "C30A G67C", "self-cleavage": 0.318},
      {"variant": "C30U C66U", "self-cleavage": 0.544},
      {"variant": "G29A G80U", "self-cleavage": 0.0283},
      {"variant": "C30U A71C", "self-cleavage": 0.404},
      {"variant": "G28C G76A", "self-cleavage": 0.106},
      {"variant": "C30G G39C", "self-cleavage": 0.131},
      {"variant": "C30G A70G", "self-cleavage": 0.0739},
      {"variant": "G29A G76U", "self-cleavage": 0.428},
      {"variant": "G29A G76A", "self-cleavage": 0.328},
      {"variant": "G29C G38C", "self-cleavage": 0.0489},
      {"variant": "C30G A43G", "self-cleavage": 0},
      {"variant": "C30A C66A", "self-cleavage": 0.582},
      {"variant": "C30G A56C", "self-cleavage": 0.0415},
      {"variant": "C30G G59U", "self-cleavage": 0.0744},
      {"variant": "C30G G59C", "self-cleavage": 0.108},
      {"variant": "C30G A42G", "self-cleavage": 0.0415},
      {"variant": "G29U C44U", "self-cleavage": 0.104},
      {"variant": "C30U C36U", "self-cleavage": 0.244},
      {"variant": "G29A C30G", "self-cleavage": 0.0415},
      {"variant": "G29U A83U", "self-cleavage": 0.102},
      {"variant": "G28C C48A", "self-cleavage": 0.166},
      {"variant": "G29C C86G", "self-cleavage": 0.133},
      {"variant": "G28U G82C", "self-cleavage": 0.0272},
      {"variant": "G28U G82A", "self-cleavage": 0.191},
      {"variant": "C30U A43U", "self-cleavage": 0.0652},
      {"variant": "G29A U37C", "self-cleavage": 0.17},
      {"variant": "G28C C63A", "self-cleavage": 0.17},
      {"variant": "G28C C63G", "self-cleavage": 0.101},
      {"variant": "C30G C57U", "self-cleavage": 0.0332},
      {"variant": "C30G G80U", "self-cleavage": 0.0912},
      {"variant": "G29U U60A", "self-cleavage": 0.248},
      {"variant": "C30U C85G", "self-cleavage": 0.0978},
      {"variant": "G29A A87U", "self-cleavage": 0.155},
      {"variant": "G29A A87C", "self-cleavage": 0.0602},
      {"variant": "G29A A87G", "self-cleavage": 0.135},
      {"variant": "C30A U37G", "self-cleavage": 0},
      {"variant": "C30A G34U", "self-cleavage": 0.155},
      {"variant": "G29A G38C", "self-cleavage": 0.0292},
      {"variant": "G29A G38A", "self-cleavage": 0.0623},
      {"variant": "G28U G29U", "self-cleavage": 0.107},
      {"variant": "C30G C41A", "self-cleavage": 0.0361},
      {"variant": "G28C C30G", "self-cleavage": 0.101},
      {"variant": "G28C C30A", "self-cleavage": 0},
      {"variant": "C30G G53A", "self-cleavage": 0.0482},
      {"variant": "G28U A87U", "self-cleavage": 0.116},
      {"variant": "G28U A87G", "self-cleavage": 0.0817},
      {"variant": "G29C G52U", "self-cleavage": 0},
      {"variant": "G29U U79A", "self-cleavage": 0.0386},
      {"variant": "G28U", "self-cleavage": 0.108},
      {"variant": "C30G U37G", "self-cleavage": 0},
      {"variant": "C30A G59C", "self-cleavage": 0.58},
      {"variant": "G28U C63A", "self-cleavage": 0.0978},
      {"variant": "G28U C63G", "self-cleavage": 0.262},
      {"variant": "G29U G34C", "self-cleavage": 0.146},
      {"variant": "C30A G80U", "self-cleavage": 0.153},
      {"variant": "G28C G38C", "self-cleavage": 0.0426},
      {"variant": "G28C G38U", "self-cleavage": 0.162},
      {"variant": "G28U G31U", "self-cleavage": 0.0923},
      {"variant": "C30U A87G", "self-cleavage": 0.699},
      {"variant": "C30U A87U", "self-cleavage": 0.636},
      {"variant": "G28U U46A", "self-cleavage": 0.111},
      {"variant": "C30U G68C", "self-cleavage": 0.575},
      {"variant": "G29C G81U", "self-cleavage": 0},
      {"variant": "C30G C32A", "self-cleavage": 0.115},
      {"variant": "C30A U47A", "self-cleavage": 0.486},
      {"variant": "C30A U47G", "self-cleavage": 0.682},
      {"variant": "G29U G54U", "self-cleavage": 0.0449},
      {"variant": "G29C G55U", "self-cleavage": 0.0396},
      {"variant": "G29C G55A", "self-cleavage": 0.166},
      {"variant": "G28C G73A", "self-cleavage": 0},
      {"variant": "G28C C44U", "self-cleavage": 0},
      {"variant": "G28C C44A", "self-cleavage": 0.0475},
      {"variant": "G28U C66U", "self-cleavage": 0.19},
      {"variant": "G28U A56C", "self-cleavage": 0},
      {"variant": "G29C C64A", "self-cleavage": 0.0755},
      {"variant": "G29C C64G", "self-cleavage": 0.095},
      {"variant": "G29A G34U", "self-cleavage": 0.0601},
      {"variant": "G28U G81A", "self-cleavage": 0.158},
      {"variant": "G28U G81C", "self-cleavage": 0.0282},
      {"variant": "G28C C49A", "self-cleavage": 0.166},
      {"variant": "G28C C49G", "self-cleavage": 0.119},
      {"variant": "G29A A51C", "self-cleavage": 0.121},
      {"variant": "C30A G35A", "self-cleavage": 0.244},
      {"variant": "C30G G31A", "self-cleavage": 0.133},
      {"variant": "C30A G82C", "self-cleavage": 0.193},
      {"variant": "C30A C62A", "self-cleavage": 0.578},
      {"variant": "G29C A42C", "self-cleavage": 0},
      {"variant": "G29A G82C", "self-cleavage": 0.0627},
      {"variant": "C30A G73U", "self-cleavage": 0.111},
      {"variant": "G28C G50A", "self-cleavage": 0.151},
      {"variant": "G28U A43U", "self-cleavage": 0.0615},
      {"variant": "G29A U60A", "self-cleavage": 0.101},
      {"variant": "C30A C86A", "self-cleavage": 0.591},
      {"variant": "G29C C66A", "self-cleavage": 0.0475},
      {"variant": "G29C C66G", "self-cleavage": 0},
      {"variant": "G29A C33U", "self-cleavage": 0.111},
      {"variant": "G29A C33G", "self-cleavage": 0.0346},
      {"variant": "G28U C64U", "self-cleavage": 0.0733},
      {"variant": "G28U C64G", "self-cleavage": 0.102},
      {"variant": "C30U C86U", "self-cleavage": 0.795},
      {"variant": "C30U C86G", "self-cleavage": 0.733},
      {"variant": "C30U C86A", "self-cleavage": 0.923},
      {"variant": "C30A C36U", "self-cleavage": 0.148},
      {"variant": "C30G G38A", "self-cleavage": 0.14},
      {"variant": "C30U C41A", "self-cleavage": 0.543},
      {"variant": "C30G C61U", "self-cleavage": 0.026},
      {"variant": "G29C G82A", "self-cleavage": 0.117},
      {"variant": "C30A G53U", "self-cleavage": 0.443},
      {"variant": "C30G G82C", "self-cleavage": 0.0326},
      {"variant": "G28U A45C", "self-cleavage": 0.148},
      {"variant": "C30A C63A", "self-cleavage": 0.481},
      {"variant": "G28U G55C", "self-cleavage": 0.138},
      {"variant": "G29A C61U", "self-cleavage": 0.274},
      {"variant": "G31A A77G", "self-cleavage": 0.339},
      {"variant": "G31A A77C", "self-cleavage": 0.199},
      {"variant": "G28C A77C", "self-cleavage": 0.229},
      {"variant": "G29A G40C", "self-cleavage": 0.0656},
      {"variant": "G29A G40U", "self-cleavage": 0.0831},
      {"variant": "C30G C63G", "self-cleavage": 0.0923},
      {"variant": "C30G C63U", "self-cleavage": 0.0231},
      {"variant": "G29U U69A", "self-cleavage": 0.0875},
      {"variant": "G29C C44U", "self-cleavage": 0},
      {"variant": "G29A A77C", "self-cleavage": 0.111},
      {"variant": "G28U A78G", "self-cleavage": 0.158},
      {"variant": "C30A G52U", "self-cleavage": 0.532},
      {"variant": "G29A A71C", "self-cleavage": 0.089},
      {"variant": "G29A U65G", "self-cleavage": 0.166},
      {"variant": "G28C C36A", "self-cleavage": 0.0462},
      {"variant": "C30A U60G", "self-cleavage": 0.502},
      {"variant": "G28C A78G", "self-cleavage": 0.26},
      {"variant": "G28U U47C", "self-cleavage": 0.297},
      {"variant": "C30U C58U", "self-cleavage": 0.743},
      {"variant": "G29C U69A", "self-cleavage": 0.162},
      {"variant": "G28U G52C", "self-cleavage": 0.154},
      {"variant": "G28C C61G", "self-cleavage": 0.158},
      {"variant": "G28C C61A", "self-cleavage": 0.0755},
      {"variant": "G28C G55C", "self-cleavage": 0.0692},
      {"variant": "G28U C84G", "self-cleavage": 0.13},
      {"variant": "G28U G38U", "self-cleavage": 0.14},
      {"variant": "G29C A43G", "self-cleavage": 0.0692},
      {"variant": "C30G U79C", "self-cleavage": 0.0496},
      {"variant": "C30G U79A", "self-cleavage": 0.156},
      {"variant": "G29C C36A", "self-cleavage": 0.0297},
      {"variant": "G29C A77G", "self-cleavage": 0.135},
      {"variant": "G28U G40A", "self-cleavage": 0.104},
      {"variant": "G28C G40A", "self-cleavage": 0.148},
      {"variant": "G28C G40U", "self-cleavage": 0.032},
      {"variant": "G29A C85A", "self-cleavage": 0.17},
      {"variant": "G29C G40C", "self-cleavage": 0.18},
      {"variant": "C30U U79G", "self-cleavage": 0.128},
      {"variant": "G29U A51C", "self-cleavage": 0.0898},
      {"variant": "C30G A77U", "self-cleavage": 0.0665},
      {"variant": "C30U C49U", "self-cleavage": 0.891},
      {"variant": "G29A G50C", "self-cleavage": 0.121},
      {"variant": "G28U C48G", "self-cleavage": 0.161},
      {"variant": "G29U U46G", "self-cleavage": 0.0386},
      {"variant": "G29U U46A", "self-cleavage": 0.0665},
      {"variant": "C30U G82A", "self-cleavage": 0.229},
      {"variant": "G29C G31U", "self-cleavage": 0.0755},
      {"variant": "G29U A77G", "self-cleavage": 0.178},
      {"variant": "G28C C41G", "self-cleavage": 0},
      {"variant": "G28C C41U", "self-cleavage": 0.0437}
    ]}
  ]
}
